According to US20200148774A1:
Numbering of substitutions follows the chain as printed. Each block holds one binder with its values, some of them ahead of it.

Target: hCD3ε 1-27 Fc (human)
Test: SPR (Biacore)

Sequence of hCD3ε 1-27 Fc (human) (chain, as listed by the source): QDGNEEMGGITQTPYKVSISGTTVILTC

Kd: 1 nM
B1: 38E4v1 (antibody, V domains shown)
VH: EVQLVQSGAEVKKPGASVKVSCKASGFTFTSYYIHWVRQAPGQGLEWIGWIYPENDNTKYNEKFKDRVTITADTSTSTAYLELSSLRSEDTAVYYCARDGYSRYYFDYWGQGTLVTVSS
VL: DIVMTQSPDSLAVSLGERATINCKSSQSLLNSRTRKNYLAWYQQKPGQSPKLLIYWTSTRKSGVPDRFSGSGSGTDFTLTISSLQAEDVAVYYCKQSFILRTFGQGTKVEIK

Kd: 13 nM
B2: 40G5c (antibody, V domains shown)
VH: B1 VH with F27Y, S31N, E54G, N55D, D56G, D66G, V68A, I70L, G100S, R103N
VL: B1 VL with S49P, T57A, K61E, K95T
